In assay [1] the target is recombinant soluble trimeric H3 HA of A/Hong Kong/1/1968 H3N2 (HK68 H3) (Influenza A virus A/Hong Kong/1/1968 …, UniProt Q91MA7). Put plainly: ELISA. The following applies: both partners purified.
Assay [2] deals with recombinant soluble trimeric H3 HA of A/Hong Kong/1/1968 H3N2 (Influenza A virus A/Hong Kong/1/1968 …, UniProt Q91MA7). Put plainly: ELISA. To be noted: both partners purified. (An ELISA detects its analyte on a solid surface through an enzyme-linked reagent.)

The values that follow come from publication PMC12288907 (JCI Insight, 2025).

Sequence of recombinant soluble trimeric H3 HA of A/Hong Kong/1/1968 H3N2 (Q91MA7 17-530): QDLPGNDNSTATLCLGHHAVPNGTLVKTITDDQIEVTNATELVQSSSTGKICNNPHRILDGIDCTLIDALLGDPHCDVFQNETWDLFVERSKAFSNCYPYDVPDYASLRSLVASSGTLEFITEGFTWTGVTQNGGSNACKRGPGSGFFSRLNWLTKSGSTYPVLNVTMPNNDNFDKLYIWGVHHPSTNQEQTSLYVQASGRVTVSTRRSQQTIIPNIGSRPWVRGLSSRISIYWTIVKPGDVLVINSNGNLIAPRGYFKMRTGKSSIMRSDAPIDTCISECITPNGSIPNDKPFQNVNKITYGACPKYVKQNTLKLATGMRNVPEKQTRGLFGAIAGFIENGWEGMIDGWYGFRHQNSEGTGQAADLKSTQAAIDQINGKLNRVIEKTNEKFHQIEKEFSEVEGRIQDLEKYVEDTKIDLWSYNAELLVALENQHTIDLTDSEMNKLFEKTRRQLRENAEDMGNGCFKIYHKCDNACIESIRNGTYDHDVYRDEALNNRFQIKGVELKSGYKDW
Sequence of recombinant soluble trimeric H3 HA of A/Hong Kong/1/1968 H3N2 (HK68 H3) (Q91MA7 17-530): as above

B1: recombinant H7-235 IgG1 (rH7-235 IgG1) (antibody, V domains shown)
VH: QVQLVESGGGVVQPGESLRLSCAASGFAFRTYGMHWVRQAPGKGLEWVGVIWYDGSNKYYGDSVKGRFTISRDNSQNTLYLQMNSLRAEDTAVYYCARNGERWRVEDYYYGMDVWGQGTLVTVSS
VL: EIVMTQSPLSLPVTPGEPASISCRSSQSLLHSNAHNYLDWYLQKPGQSPQLLIYLGSNRASGVPDRFSGSGSGTDFTLKISRVEAEDVGIYYCMQALQTPITFGQGTRLEIK
notes: IgG1; also called rH7-235 mAb; mAb H7-235; copies: 2 + 2
Regarding B1, the binding result in assay [1] was “no binding”.

B2: rH7-235 IgG1 (recombinant human monoclonal antibody H7-235) (antibody, V domains shown)
VH: QVQLVESGGGVVQPGESLRLSCAASGFAFRTYGMHWVRQAPGKGLEWVGVIWYDGSNKYYGDSVKGRFTISRDNSQNTLYLQMNSLRAEDTAVYYCARNGERWRVEDYYYGMDVWGQGTLVTVSS
VL: EIVMTQSPLSLPVTPGEPASISCRSSQSLLHSNAHNYLDWYLQKPGQSPQLLIYLGSNRASGVPDRFSGSGSGTDFTLKISRVEAEDVGIYYCMQALQTPITFGQGTRLEIK
notes: also called mAb H7-235; source: Expi293F, transient transfection, purified (MabSelect Sure)
As to B2, the binding result in assay [2] is listed as “no binding (tested: >10,000 ng/mL)”.

B3: rH7-235rev IgG1 (germline revertant form of rH7-235 IgG) (antibody, V domains shown)
VH: QVQLVESGGGVVQPGRSLRLSCAASGFTFSSYGMHWVRQAPGKGLEWVAVIWYDGSNKYYADSVKGRFTISRDNSKNTLYLQMNSLRAEDTAVYYCARNGERWRVEDYYYGMDVWGQGTLVTVSS
VL: not shown
As for B3, the binding result in assay [2] was “no binding (tested: >10,000 ng/mL)”.
